One assay has as its target human ERK2 (human) (UniProt P28482). Description: cell-based or functional assay.
For another assay, the target named is MEK1 (h) (human) (UniProt Q02750). Description: cell-based or functional assay.

Ends that are not written are not given here.

Chain of human ERK2 (human) (P28482 whole entry): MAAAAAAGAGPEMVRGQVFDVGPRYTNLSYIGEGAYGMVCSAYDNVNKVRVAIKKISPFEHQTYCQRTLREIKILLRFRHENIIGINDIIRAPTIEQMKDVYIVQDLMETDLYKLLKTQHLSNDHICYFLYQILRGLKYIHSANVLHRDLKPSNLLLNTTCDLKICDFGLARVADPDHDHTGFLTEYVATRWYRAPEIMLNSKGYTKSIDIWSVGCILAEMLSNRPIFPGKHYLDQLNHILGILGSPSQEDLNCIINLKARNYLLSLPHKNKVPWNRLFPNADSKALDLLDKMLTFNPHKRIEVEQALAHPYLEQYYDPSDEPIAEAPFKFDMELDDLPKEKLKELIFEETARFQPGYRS

Turning to RSRARNPLYR (peptide, part only, also: 10 copies on 10-mer dendrimer framework) [peptide dendrimer Dend 10β5 presenting 10 monomer units of the β5 integrin derived peptide …], the figures for the % inhibition of kinase activity, cell-free assay, dendrimer at 20 µM with human ERK2 (human) and with MEK1 (h) (human) were 96 % inhibition and 92 % inhibition, respectively.

Source of the values: patent publication US20120277161A1, “INHIBITION OF MULTIPLE CELL ACTIVATION PATHWAYS” (INTER-K PTY LIMITED, priority 2009, published 2012).
